# Reference: PMC4148193, “Chromatin Insulator Factors Involved in Long-Range DNA Interactions and Their Role in the Folding of the Drosophila Genome” (PLoS Genetics, 2014)
# T1: Chromator-C (Drosophila, UniProt Q86BS3 601-926)
# T1 sequence: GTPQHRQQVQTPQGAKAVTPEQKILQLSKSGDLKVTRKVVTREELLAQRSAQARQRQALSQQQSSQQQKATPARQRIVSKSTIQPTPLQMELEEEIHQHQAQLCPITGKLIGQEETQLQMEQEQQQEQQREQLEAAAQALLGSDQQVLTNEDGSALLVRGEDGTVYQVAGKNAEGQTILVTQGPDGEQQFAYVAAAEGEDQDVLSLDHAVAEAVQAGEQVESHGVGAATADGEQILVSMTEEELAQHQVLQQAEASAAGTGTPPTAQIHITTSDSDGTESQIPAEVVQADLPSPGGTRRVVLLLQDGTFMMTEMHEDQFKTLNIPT
# T2: Chromator (Drosophila, UniProt Q86BS3 1-926)
# T2 sequence: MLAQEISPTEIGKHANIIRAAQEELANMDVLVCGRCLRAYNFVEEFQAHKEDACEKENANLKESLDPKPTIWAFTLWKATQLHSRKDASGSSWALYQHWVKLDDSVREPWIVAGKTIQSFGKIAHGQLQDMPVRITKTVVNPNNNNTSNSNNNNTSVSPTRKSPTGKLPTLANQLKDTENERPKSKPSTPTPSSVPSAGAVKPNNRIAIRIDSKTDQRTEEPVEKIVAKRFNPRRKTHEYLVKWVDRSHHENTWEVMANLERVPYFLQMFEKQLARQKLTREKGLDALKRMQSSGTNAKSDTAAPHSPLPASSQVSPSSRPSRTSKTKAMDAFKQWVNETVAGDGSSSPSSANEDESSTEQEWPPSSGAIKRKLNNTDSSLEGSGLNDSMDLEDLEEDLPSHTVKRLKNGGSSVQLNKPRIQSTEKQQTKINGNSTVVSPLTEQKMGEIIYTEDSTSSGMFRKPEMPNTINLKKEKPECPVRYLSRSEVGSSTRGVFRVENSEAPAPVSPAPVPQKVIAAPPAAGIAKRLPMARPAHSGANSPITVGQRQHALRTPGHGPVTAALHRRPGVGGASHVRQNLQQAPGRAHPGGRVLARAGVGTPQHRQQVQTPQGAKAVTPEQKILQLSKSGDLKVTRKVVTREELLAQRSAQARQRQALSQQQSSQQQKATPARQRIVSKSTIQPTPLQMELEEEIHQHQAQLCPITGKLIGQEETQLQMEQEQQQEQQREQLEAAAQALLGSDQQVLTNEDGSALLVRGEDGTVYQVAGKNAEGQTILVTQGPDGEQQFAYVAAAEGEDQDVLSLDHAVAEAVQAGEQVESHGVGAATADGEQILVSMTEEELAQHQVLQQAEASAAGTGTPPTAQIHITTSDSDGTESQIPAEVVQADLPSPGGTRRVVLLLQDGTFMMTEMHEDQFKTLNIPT
# T3: CP190 (Drosophila, UniProt Q24478 1-1096)
# T3 sequence: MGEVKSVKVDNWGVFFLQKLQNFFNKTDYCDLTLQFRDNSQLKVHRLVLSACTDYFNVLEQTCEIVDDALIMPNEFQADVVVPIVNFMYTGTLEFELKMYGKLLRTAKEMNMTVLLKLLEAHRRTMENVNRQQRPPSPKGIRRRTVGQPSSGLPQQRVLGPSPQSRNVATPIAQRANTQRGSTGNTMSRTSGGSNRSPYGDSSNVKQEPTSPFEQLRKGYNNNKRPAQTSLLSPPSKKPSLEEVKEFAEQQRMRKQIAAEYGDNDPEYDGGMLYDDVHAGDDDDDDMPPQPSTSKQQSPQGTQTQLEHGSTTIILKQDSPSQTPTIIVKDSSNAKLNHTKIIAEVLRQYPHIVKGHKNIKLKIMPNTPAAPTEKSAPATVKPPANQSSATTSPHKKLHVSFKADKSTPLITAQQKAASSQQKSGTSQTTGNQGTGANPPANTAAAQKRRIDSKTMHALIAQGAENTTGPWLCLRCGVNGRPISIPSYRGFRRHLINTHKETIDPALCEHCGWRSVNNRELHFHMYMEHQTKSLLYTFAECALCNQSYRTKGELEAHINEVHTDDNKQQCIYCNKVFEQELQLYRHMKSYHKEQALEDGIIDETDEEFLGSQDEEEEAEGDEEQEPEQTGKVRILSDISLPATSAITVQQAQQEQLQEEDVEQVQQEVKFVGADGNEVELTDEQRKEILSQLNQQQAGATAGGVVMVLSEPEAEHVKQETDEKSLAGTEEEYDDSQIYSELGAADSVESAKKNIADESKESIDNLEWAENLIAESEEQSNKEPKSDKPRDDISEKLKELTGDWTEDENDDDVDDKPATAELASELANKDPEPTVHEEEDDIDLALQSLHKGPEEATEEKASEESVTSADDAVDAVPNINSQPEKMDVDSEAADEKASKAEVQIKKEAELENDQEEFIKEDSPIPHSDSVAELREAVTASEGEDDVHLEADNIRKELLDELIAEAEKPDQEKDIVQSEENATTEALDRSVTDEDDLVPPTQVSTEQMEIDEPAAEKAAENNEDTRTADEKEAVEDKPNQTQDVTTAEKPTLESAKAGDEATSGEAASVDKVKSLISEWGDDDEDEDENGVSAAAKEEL
# B1: DNAS (dsDNA)
# DNA 1: AGAAGTCAGCGCGATAGCATCGATATTTTCGTGACACGCTTGTCATCCGATAGGTAGT
# DNA 2: ACTACCTATCGGATGACAAGCGTGTCACGAAAATATCGATGCTATCGCGCTGACTTCT
# What was measured:
# Details in all cases: protein: recombinant; tags: N-term 6xHis; blunt
# Chromator-C = molecular target: T1, Chromator-C; test: fluorescence anisotropy; FA/FCS: 30 mM Tris/HCl pH 7.5, 100 mM NaCl, 20 uM ZnSO4, 5 mM mercaptoethanol, 0.01 mg/ml BSA, 0.004% Tween20, 2.5 nM DNA; EMSA: 150 mM NaCl, 30 mM Tris/HCl pH
# Chromator [1] = molecular target: T2, Chromator; test: fluorescence anisotropy; Hill n=2±0.2; 20 uM ZnSO4; FA/FCS: 30 mM Tris/HCl pH 7.5, 100 mM NaCl, 20 uM ZnSO4, 5 mM mercaptoethanol, 0.01 mg/ml BSA, 0.004% Tween20, 2.5 nM DNA; EMSA: 150 mM NaCl, 30 mM Tris/HCl pH
# CP190 = molecular target: T3, CP190; test: fluorescence anisotropy; Hill n=2±0.3; 20 uM ZnSO4; FA/FCS: 30 mM Tris/HCl pH 7.5, 100 mM NaCl, 20 uM ZnSO4, 5 mM mercaptoethanol, 0.01 mg/ml BSA, 0.004% Tween20, 2.5 nM DNA; EMSA: 150 mM NaCl, 30 mM Tris/HCl pH
# Chromator [2] = molecular target: T2, Chromator; test: competition; unlabeled DNAS vs 2.5 nM Cy3B-DNAS, 638 nM Chromator; FA/FCS: 30 mM Tris/HCl pH 7.5, 100 mM NaCl, 20 uM ZnSO4, 5 mM mercaptoethanol, 0.01 mg/ml BSA, 0.004% Tween20, 2.5 nM DNA; EMSA: 150 mM NaCl, 30 mM Tris/HCl pH
binder,measurement,setting,value
B1,binding result,Chromator-C,no binding
same,Kd,Chromator [1],360 ± 30 nM
same,Kd,CP190,109 ± 5 nM
same,Ki,Chromator [2],514 ± 360 nM
